Blank lines part the entries; values can stand above or below the binder they belong to.
Key:
[1] = target: human IL-13Rα2 on the surface of human tumour cell lines (human) (UniProt Q14627); test: FACS, 10 µg/mL, U87MG (glioblastoma) cells
[2] = target: human IL-13Rα2 on the surface of human tumour cell lines (human) (UniProt Q14627); test: FACS, 10 µg/mL, H460 (lung, cisplatin resistant) cells
[3] = target: human IL-13Rα2 on the surface of human tumour cell lines (human) (UniProt Q14627); test: FACS, 10 µg/mL, SW626 (ovarian) cells
[4] = target: human IL-13Rα2 on the surface of human tumour cell lines (human) (UniProt Q14627); test: FACS, 10 µg/mL, A375 (melanoma) cells
[5] = target: human IL-13Rα2 on the surface of human tumour cell lines (human) (UniProt Q14627); test: FACS, 10 µg/mL, A498 (renal) cells
[6] = target: human IL-13Rα2 on the surface of human tumour cell lines (human) (UniProt Q14627); test: FACS, 10 µg/mL, PC3MM2 (prostate) cells
[7] = target: human IL-13Rα2 on the surface of human tumour cell lines (human) (UniProt Q14627); test: cell-based or functional assay
[8] = target: human IL-13Rα2 on the surface of human tumour cell lines (human) (UniProt Q14627); test: FACS, 10 µg/mL, Hs766T (pancreatic) cells
[9] = target: human IL-13Rα2 on the surface of human tumour cell lines (human) (UniProt Q14627); test: competition ELISA on A375 cells, competitor biotinylated ch07
[10] = target: human IL-13Rα2 on the surface of human tumour cell lines (human) (UniProt Q14627); test: cell-based ELISA on A375 cells (given as ED50)
[11] = target: human IL-13Rα2 on the surface of human tumour cell lines (human) (UniProt Q14627); test: FACS on A375 cells

Sequence of human IL-13Rα2 on the surface of human tumour cell lines (human) (Q14627 27-380): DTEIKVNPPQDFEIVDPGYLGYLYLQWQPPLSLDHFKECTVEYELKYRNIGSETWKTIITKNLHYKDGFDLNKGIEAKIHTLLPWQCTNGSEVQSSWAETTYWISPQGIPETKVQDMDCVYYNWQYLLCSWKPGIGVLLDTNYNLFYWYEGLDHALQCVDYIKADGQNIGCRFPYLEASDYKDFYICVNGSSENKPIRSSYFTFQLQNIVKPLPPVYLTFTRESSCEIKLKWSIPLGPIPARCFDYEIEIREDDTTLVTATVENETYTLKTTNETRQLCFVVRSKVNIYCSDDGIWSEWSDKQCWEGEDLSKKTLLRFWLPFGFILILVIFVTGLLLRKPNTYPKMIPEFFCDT

B2: hu07 heavy chain v1.5 paired with chimeric light chain (antibody, V domains shown)
VH: EVQLVESGGGLVQPGGSLRLSCAASGFSLTKYGVHWVRQAPGKGLEWVGVKWAGGSTDYNSALMSRFTISKDNAKNSLYLQMNSLRAEDTAVYYCARDHRDAMDYWGQGTLVTVSS
VL: QVVLTQSPAIMSASPGERVTMTCTASLSVSSTYLHWYHQKPGSSPKLWIYSTSNLASGVPARFSGSGSGTSYSLTISSMEAEDAATYYCHQYHRSPLTFGSGTKLELK
IC50 [9]: 7.67 nM
EC50 [10]: 0.87 nM

B3: chimeric antibody ch07 (antibody, human IgG1, V domains shown)
VH: QVQLKESGPGLVAPSQSLSINCTVSGFSLTKYGVHWIRQSPGKGLEWLGVKWAGGSTDYNSALMSRLTISKDNNKSQVFLKMNSLQSDDSAMYYCARDHRDAMDYWGQGTSVTVSS
VL: QVVLTQSPAIMSASPGERVTMTCTASLSVSSTYLHWYHQKPGSSPKLWIYSTSNLASGVPARFSGSGSGTSYSLTISSMEAEDAATYYCHQYHRSPLTFGSGTKLELK
IC50 [9]: 17.3 nM
EC50 [10]: 0.85 nM

B5: chimeric antibody ch08 (antibody, human IgG1, V domains shown)
VH: EVQLVESGGDLVRPGGSLQLSCAASGFTFSRNGMSWVRQTPDRRLEWVATVSSGGSYIYYADSVKGRFTISRDNARNTLYLQMSSLKSEDTAMYYCARQGTTALATRFFDVWGAGTTVTVSS
VL: DIVMTQSHKFISTSVGDRVSITCKASQDVGTAVAWYQQIPGQSPKLLIYSASYRSTGIPDRFTGSGSGTDFSFIISSVQAEDLALYYCQHHYSAPWTFGGGTTLDIK
EC50 [11]: 5.64 nM

B6: hu07 heavy chain v1.5 / light chain v1.0 (antibody, IgG1, V domains shown)
VH: EVQLVESGGGLVQPGGSLRLSCAASGFSLTKYGVHWVRQAPGKGLEWVGVKWAGGSTDYNSALMSRFTISKDNAKNSLYLQMNSLRAEDTAVYYCARDHRDAMDYWGQGTLVTVSS
VL: DIQMTQSPSSLSASVGDRVTITCTASLSVSSTYLHWYQQKPGKAPKLLIYSTSNLASGVPSRFSGSGSGTDFTLTISSLQPEDFATYYCHQYHRSPLTFGGGTKVEIK
IC50 [9]: 12.3 nM
EC50 [10]: 1.17 nM

B7: hu07 heavy chain v1.5 / light chain v1.1 (antibody, IgG1, V domains shown)
VH: EVQLVESGGGLVQPGGSLRLSCAASGFSLTKYGVHWVRQAPGKGLEWVGVKWAGGSTDYNSALMSRFTISKDNAKNSLYLQMNSLRAEDTAVYYCARDHRDAMDYWGQGTLVTVSS
VL: DIQMTQSPSSLSASVGDRVTITCTASLSVSSTYLHWYQQKPGSSPKLLIYSTSNLASGVPSRFSGSGSGTSFTLTISSLQPEDFATYYCHQYHRSPLTFGGGTKVEIK
IC50 [9]: 19 nM
EC50 [10]: 1.29 nM

Now from value to binder:

Mean Fluorescent Intensity [1]: 61000
Mean Fluorescent Intensity [2]: 28000
Mean Fluorescent Intensity [3]: 9000
Mean Fluorescent Intensity [4]: 53000
Mean Fluorescent Intensity [5]: 13000
Mean Fluorescent Intensity [6]: 84000
% internalization, 15 min, A375 [7]: 63.1%
% internalization, 15 min, H460R [7]: 74.4%
% internalization, 15 min, Hs766T [7]: 69.6%
% internalization, 15 min, PC3MM2 [7]: 88.6%
% internalization, 4 hours, A375 [7]: 38.1%
% internalization, 4 hours, H460R [7]: 38.4%
% internalization, 4 hours, Hs766T [7]: 69%
% internalization, 4 hours, PC3MM2 [7]: 50.3%
internalized after a 1 hour incubation with A375 cells at 37° C. [7]: 38%
Mean Fluorescent Intensity [8]: 13000
B1: murine anti-IL-13Rα2 antibody mu07 (antibody, mouse IgG1, V domains shown)
VH: QVQLKESGPGLVAPSQSLSINCTVSGFSLTKYGVHWIRQSPGKGLEWLGVKWAGGSTDYNSALMSRLTISKDNNKSQVFLKMNSLQSDDSAMYYCARDHRDAMDYWGQGTSVTVSS
VL: QVVLTQSPAIMSASPGERVTMTCTASLSVSSTYLHWYHQKPGSSPKLWIYSTSNLASGVPARFSGSGSGTSYSLTISSMEAEDAATYYCHQYHRSPLTFGSGTKLELK

Mean Fluorescent Intensity [1]: 62000
Mean Fluorescent Intensity [2]: 22000
Mean Fluorescent Intensity [3]: 8000
Mean Fluorescent Intensity [4]: 46000
Mean Fluorescent Intensity [5]: 5000
Mean Fluorescent Intensity [6]: 72000
% internalization, 15 min, A375 [7]: 68%
% internalization, 15 min, H460R [7]: 55.9%
% internalization, 15 min, Hs766T [7]: 64.1%
% internalization, 15 min, PC3MM2 [7]: 81.9%
% internalization, 4 hours, A375 [7]: 61.8%
% internalization, 4 hours, H460R [7]: 47.4%
% internalization, 4 hours, Hs766T [7]: 76.3%
% internalization, 4 hours, PC3MM2 [7]: 41.6%
internalized after a 1 hour incubation with A375 cells at 37° C. [7]: 31%
Mean Fluorescent Intensity [8]: 14000
B4: murine anti-IL-13Rα2 antibody mu08 (antibody, mouse IgG1, V domains shown)
VH: EVQLVESGGDLVRPGGSLQLSCAASGFTFSRNGMSWVRQTPDRRLEWVATVSSGGSYIYYADSVKGRFTISRDNARNTLYLQMSSLKSEDTAMYYCARQGTTALATRFFDVWGAGTTVTVSS
VL: DIVMTQSHKFISTSVGDRVSITCKASQDVGTAVAWYQQIPGQSPKLLIYSASYRSTGIPDRFTGSGSGTDFSFIISSVQAEDLALYYCQHHYSAPWTFGGGTTLDIK

EC50 [11]: 6.52 nM
B8: humanized antibody hu08 v1.0 HC/v1.1 LC (antibody, IgG1, V domains shown)
VH: EVQLVESGGGLVQPGGSLRLSCAASGFTFSRNGMSWVRQAPGKGLEWVATVSSGGSYIYYADSVKGRFTISRDNAKNSLYLQMNSLRAEDTAVYYCARQGTTALATRFFDVWGQGTLVTVSS
VL: DIQMTQSPSSLSASVGDRVTITCKASQDVGTAVAWYQQIPGKAPKLLIYSASYRSTGVPDRFSGSGSGTDFSFIISSLQPEDFATYYCQHHYSAPWTFGGGTKVEIK

EC50 [11]: 4.15 nM
B9: humanized antibody hu08 v1.1 HC/v1.0 LC (antibody, IgG1, V domains shown)
VH: EVQLVESGGGLVQPGGSLRLSCAASGFTFSRNGMSWVRQTPDKRLEWVATVSSGGSYIYYADSVKGRFTISRDNAKNSLYLQMSSLRAEDTAVYYCARQGTTALATRFFDVWGQGTLVTVSS
VL: DIQMTQSPSSLSASVGDRVTITCKASQDVGTAVAWYQQKPGKAPKLLIYSASYRSTGVPSRFSGSGSGTDFTLTISSLQPEDFATYYCQHHYSAPWTFGGGTKVEIK

EC50 [11]: 5.16 nM
B10: humanized antibody hu08 v1.1 HC/v1.1 LC (antibody, IgG1, V domains shown)
VH: EVQLVESGGGLVQPGGSLRLSCAASGFTFSRNGMSWVRQTPDKRLEWVATVSSGGSYIYYADSVKGRFTISRDNAKNSLYLQMSSLRAEDTAVYYCARQGTTALATRFFDVWGQGTLVTVSS
VL: DIQMTQSPSSLSASVGDRVTITCKASQDVGTAVAWYQQIPGKAPKLLIYSASYRSTGVPDRFSGSGSGTDFSFIISSLQPEDFATYYCQHHYSAPWTFGGGTKVEIK

From US20150266962A1
